The values that follow are results of earlier work, collected in PMC5075240.

This data set addresses calmodulin (UniProt P0DP23).

For “TRPV1 C-terminal fragment 767-801 (from UniProt O35433)”, the equilibrium dissociation constant (Kd) was 50 nM.
